Source: patent US20250154235A1 (NEURIMMUNE, published 2025)
Ends that are not written are not given here.

Columns and labels:
[1] = molecular target: T1, bovine serum albumin (BSA) (bovine, UniProt P02769 25-607); assay: dot blot on nitrocellulose, NI-301.mur35G11 10 nM, anti-mouse IgG2a-HRP detection
T1 construct: Control antigen in the ELISA
Procedure: FIGS. 6A-6C: Absence of binding to human plasma TTR on dot blot. [0051] […] [0052] Samples 1-6:150 ng of 1) aggregated wt-TTR, 2) native wt-TTR, 3) BSA, 4) native V30M-TTR, 5) native L55P-TTR and 6) native Y78F-TTR. [0053] Samples 7-18:2 μl of plasma collected from 7-10) controls (n=4), 11-14) asymptomatic mutation carriers (n=4) and 15-18) FAP patients (n=4).

[2] = molecular target: T2, TTR 15-mer peptide TSESGELHGLTTEEE (human, also: covalently bound to a membrane); assay: pepscan membrane of 15-mer TTR peptides (peptides 13 and 14)
T2 peptide: TSESGELHGLTTEEE
Procedure: (§1) Additional peptides including selected mutations were also plotted on the membrane. The membrane was blocked in Roti blocking buffer overnight at 4° C., incubated first with the anti-TTR antibody diluted in blocking buffer for 2 h at RT, then with an HRP-coupled anti human IgG antibody for 45 min at RT (dilution 1/20000 in TBS). The reaction was developed with luminol and imaged by luminescence.

[3] = molecular target: T3, TTR 15-mer peptide GELHGLTTEEEFVEG (human, also: covalently bound to a membrane); assay: as above
T3 peptide: GELHGLTTEEEFVEG
Procedure: as §1

[4] = molecular target: mouse TTR protein contained in wild-type mouse liver extract (mouse, UniProt P07309 21-147); assay: western blot, wild-type mouse liver extract 10 ug total protein
Procedure: FIGS. 4A-4D: Specificity for aggregated TTR on western blot. [0047] […] To prevent dissociation of the high molecular weight aggregates, the aggregated TTR sample was crosslinked with glutaraldehyde (1%, 5 min) prior to loading on the gel.
The binding specificity and selectivity of anti-TTR antibodies was evaluated by means of western blot, see FIG. 4A-4D. In brief, human wild-type TTR protein (300 ng) in native or misfolded-aggregated conformations, and wild-type mouse liver extract (10 μg total protein) were loaded on a SDS-PAGE gel and transferred onto a nitrocellulose membrane using a semi-dry transfer system. […] After 4 washes with PBS-T for 5 min at RT, the membrane was incubated with the appropriate secondary antibody (HRP-coupled; 1/10000 dilution in blocking buffer) for 1 h at RT. After 3 washes with PBS-T and a final one in PBS, the membrane was developed with luminol and the signal intensity quantified by measuring luminescence. Shortly before use, the misfolded-aggregated TTR sample was submitted to crosslinking with glutaraldehyde (1%, 5 min, 37° C.) to prevent the dissociation of TTR aggregates during the preparation process for SDS-PAGE. In contrast, the native TTR sample was not crosslinked before use, such that the TTR homotetramer (which is the native TTR conformation under physiological conditions) almost entirely dissociated into monomers and dimers.

[5] = molecular target: T1, bovine serum albumin (BSA); assay: direct ELISA, BSA coated at 10 ug/ml
Procedure: (§2) The antibody capacity to bind TTR and/or misfolded, misassembled and/or aggregated forms of TTR was evaluated by means of direct ELISA assays at varying antibody concentrations. This allows to determinate for each antibody its half maximal effective concentration (EC50) in this assay, which is a commonly used proxy for the antibody binding affinity, see FIG. 2A-2C. […] Antibodies against TTR were diluted in PBS at 11 different concentrations ranging from 4 to 400 nM, and incubated in the ELISA plates overnight at 4° C. After 3 washes with PBS-T, ELISA plates were incubated with a HRP-coupled, human IgG-specific secondary antibody for 1 h at RT (1/4000 dilution). After 3 washes with PBS-T, the ELISA reactions were developed with TMB for exactly 10 min at RT and quantified by measuring the optical density at 450 nm (OD450 nm).
(§3) Subsequently, the antibody's EC50s were determined by fitting the data with a non-linear regression using the least square method in order to estimate the antibody binding affinity under these conditions.

[6] = molecular target: T4, misfolded-aggregated human wild-type TTR (human, UniProt P02766 21-147); assay: direct ELISA, misfolded-aggregated human wild-type TTR coated at 10 ug/ml
Procedure: as §2, §3

[7] = molecular target: T5, TTR 15-mer peptide GLTTEEEFVEGIYKV (human, also: covalently bound to a membrane); assay: pepscan membrane of 15-mer TTR peptides (peptides 15 and 16)
T5 peptide: GLTTEEEFVEGIYKV
Procedure: as §1

[8] = molecular target: T6, TTR 15-mer peptide EEEFVEGIYKVEIDT (human, also: covalently bound to a membrane); assay: as above
T6 peptide: EEEFVEGIYKVEIDT
Procedure: as §1

[9] = molecular target: T4, misfolded-aggregated human wild-type TTR; assay: SPR (ProteOn XPR36), antibody captured by anti-human IgG-Fc, TTR in solution 3.2-316 nM, Langmuir 1:1 fit
Procedure: (§4) SPR analysis was performed on a BioRad ProteOn XPR36 fitted with a GLM sensor chip. An anti-human antibody directed against the Fc gamma domain was covalently coupled to the detection surface and saturated with the antibody under investigation. […] The antibody-antigen association was analyzed during 180 s and the dissociation during 600 s. A Langmuir binding model (simple 1:1 association) was used to fit the data and derive the association (ka) and dissociation (kd) constants, and the affinity (KD).
(§5) An anti-human IgG-Fcγ antibody was covalently coated on the detection surfaces, and used to capture the human TTR-specific antibodies.

native TTR-L55P = native TTR-L55P (human, UniProt P02766 21-147); assay: as above
Procedure: as §4, §5

native TTR-V30M = native TTR-V30M (human, UniProt P02766 21-147); assay: as above
Procedure: as §4, §5

[10] = molecular target: misfolded-aggregated recombinant V30M-TTR (human, UniProt P02766 21-147); assay: direct ELISA, misfolded-aggregated recombinant V30M-TTR coated at 10 ug/ml
Procedure: as §2, §3

[11] = molecular target: T7, TTR 15-mer peptide FRKAADDTWEPFASG (human, also: covalently bound to a membrane); assay: pepscan membrane of 15-mer TTR peptides (peptides 9, 10 and 11)
T7 peptide: FRKAADDTWEPFASG
Procedure: as §1

[12] = molecular target: T8, TTR 15-mer peptide ADDTWEPFASGKTSE (human, also: covalently bound to a membrane); assay: as above
T8 peptide: ADDTWEPFASGKTSE
Procedure: as §1

[13] = molecular target: T9, TTR 15-mer peptide WEPFASGKTSESGEL (human, also: covalently bound to a membrane); assay: as above
T9 peptide: WEPFASGKTSESGEL
Procedure: as §1

[14] = molecular target: T10, TTR-E42G peptide sequence WGPFA (41-45) (human); assay: pepscan membrane, mutant peptide
T10 construct: Present in a mutant 15-mer spot of the pepscan membrane
T10 peptide: WGPFA
Procedure: as §1

T1 sequence (P02769 25-607 limits assumed): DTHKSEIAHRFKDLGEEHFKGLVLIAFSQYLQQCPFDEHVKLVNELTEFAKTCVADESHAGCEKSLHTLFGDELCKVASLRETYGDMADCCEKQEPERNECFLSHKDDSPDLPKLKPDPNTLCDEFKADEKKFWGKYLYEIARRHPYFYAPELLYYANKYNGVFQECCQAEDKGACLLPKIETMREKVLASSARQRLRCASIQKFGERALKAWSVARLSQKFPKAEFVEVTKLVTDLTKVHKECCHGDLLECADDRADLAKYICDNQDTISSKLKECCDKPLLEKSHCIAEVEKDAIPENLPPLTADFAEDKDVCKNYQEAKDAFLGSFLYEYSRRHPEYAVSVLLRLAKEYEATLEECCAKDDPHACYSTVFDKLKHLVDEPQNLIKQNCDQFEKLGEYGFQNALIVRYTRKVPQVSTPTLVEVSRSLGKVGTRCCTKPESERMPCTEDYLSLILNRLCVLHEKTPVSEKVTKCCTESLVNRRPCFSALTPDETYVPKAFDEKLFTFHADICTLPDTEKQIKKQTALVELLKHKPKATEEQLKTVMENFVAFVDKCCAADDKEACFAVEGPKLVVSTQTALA

B1: mouse chimeric antibody NI-301.mur35G11 (antibody, V domains shown)
VH: EVQLVESGGGLVQPGGSLRLSCVASGFTFSSYAMSWVRQVPGKGLEWVSSISGSGDTTKYTDSVKGRFTISRDNSKNTVFLQMSSLRAEDTALYYCVKDGSGRIDPFALWGQGTMVTVSS
VL: EIVMTQSPLSLPVTLGQPASISCRSSRSLVYSDGNIYLNWFQQRPGQSPRRLIYKVSNRDSGVPDRFSGSGSDTDFTLRISRVEAEDVGVYYCMQGTHWPRTFGQGTKVEIK
notes: detected with anti-mouse IgG2a secondary antibody; also called murine chimeric anti-TTR antibody
- binding result [1]: no binding (tested: 10 nM)

B2: NI-301.35G11 (antibody, V domains shown)
VH: B1 VH
VL: B1 VL
notes: also called NI.35G11
- binding result [2]: binds
- binding result [3]: binds
- binding result [4]: no binding (tested: 50 nM)
- binding result [5]: no binding (tested: up to 400 nM)

B3: NI-301.59F1 (antibody, V domains shown)
VH: EVQLVESGGGLVQPGGSLRLSCVASGFTFSNYWMSWVRQAPGKGLEWVANINQDSEKYYVDSVKGRFAISRDNSKNSLYLQMNSLRVEDTGVYYCARDRYCSGGRCSRGNNWFDPWGQGTLVTVSS
VL: not shown
- EC50 [6]: 3 nM
- binding result [7]: binds
- binding result [8]: binds
- Kd [9]: 3.5 nM
- koff [9]: 0.00034 s⁻¹
- kon [9]: 97000 M⁻¹ s⁻¹
- Kd (native TTR-L55P): 3.1 nM
- koff (native TTR-L55P): 0.00015 s⁻¹
- kon (native TTR-L55P): 51000 M⁻¹ s⁻¹
- Kd (native TTR-V30M): 16 nM
- koff (native TTR-V30M): 0.00022 s⁻¹
- kon (native TTR-V30M): 13000 M⁻¹ s⁻¹
- binding result [4]: no binding (tested: 50 nM)
- binding result [5]: no binding (tested: up to 400 nM)
- EC50 [10]: 15.5 nM

B4: NI-301.37F1 (antibody, V domains shown)
VH: QVQLQESGPGLVKPSETLSLTCSVSGGSIISRSSYWGWIRQPPGKGLEWIGGIYHSGNTYDNPSLKSRLTMSVDTSKNQFSLNLRSVTAADTAVYYCARIVPGGDAFDIWGQGTMVTVSS
VL: DIQMTQSPSSLSASVGDRVTIACRASQSVGTYLNWYQQKRGKAPKLLIFAASSLQSGVPSRFSGSGSGTDFTLTISSLQPEDFATYYCQQSYSSPPTFGQGTKVEIK
- binding result [11]: binds
- binding result [12]: binds
- binding result [13]: binds
- binding result [14]: no binding (tested: 50 nM)
- binding result [4]: no binding (tested: 50 nM)
- binding result [5]: no binding (tested: up to 400 nM)
